This note sets out measurements from US10450368.

For orientation: EC50 (read off the curve) means the concentration needed to bring the measured effect to its halfway point.

Test [1] addresses Centromere B (UniProt P07199). Description: AtheNA, Ab 6.25 ug/ml.
Test [2] has as its target Centromere B (UniProt P07199). In words: AtheNA, Ab 12.5 ug/ml.
In test [3] the target is Centromere B (UniProt P07199). Description: AtheNA, Ab 25 ug/ml.
For test [4], the target named is BG505 SOSIP.664 gp140 trimer (HIV-1). Description: negative stain EM, 10 molar excess of Fab.
In test [5] the target is B41 SOSIP.664 gp140 trimer (HIV-1). Description: negative stain EM, 10 molar excess of Fab.
Test [6] has as its target Jo-1 (UniProt P12081). Description: AtheNA, Ab 6.25 ug/ml.
Substrate in the test “AtheNA, Ab 50 ug/ml”: SSB (UniProt P05455)
Description: AtheNA, Ab 50 ug/ml.

Substrate in the test “AtheNA, Ab 6.25 ug/ml”: SSB (UniProt P05455)
In words: AtheNA, Ab 6.25 ug/ml.

Substrate in the test “AtheNA, Ab 12.5 ug/ml”: SSB (UniProt P05455)
Description: AtheNA, Ab 12.5 ug/ml.

Substrate in the test “AtheNA, Ab 25 ug/ml”: SSB (UniProt P05455)
Description: AtheNA, Ab 25 ug/ml.

Test [7] deals with Centromere B (UniProt P07199). In words: AtheNA, Ab 50 ug/ml.
Test [8] addresses Jo-1 (UniProt P12081). In words: AtheNA, Ab 50 ug/ml.
For test [9], the target named is Jo-1 (UniProt P12081). In words: AtheNA, Ab 12.5 ug/ml.
Test [10] concerns the target Jo-1 (UniProt P12081). Description: AtheNA, Ab 25 ug/ml.
Test [11] deals with CH505.TF mutant gp120 M8 (HIV-1). Description: direct-binding ELISA (OD450), panel 'CH505.TF gp120 M8'. A general note: ELISA stands for enzyme-linked immunosorbent assay.
Test [12] deals with HIV-1 CH505 transmitted/founder gp120 Env (HIV-1). In words: direct-binding ELISA (OD450), panel 'CH505.TF gp120'.
Test [13] addresses CH505.TF mutant gp120 M6 (HIV-1). Description: direct-binding ELISA (OD450), panel 'CH505.TF gp120 M6'.
The target of a further test is Con S gp120. In words: direct-binding ELISA (OD450), panel 'Con S gp120'.

Chain of Jo-1 (P12081 whole entry): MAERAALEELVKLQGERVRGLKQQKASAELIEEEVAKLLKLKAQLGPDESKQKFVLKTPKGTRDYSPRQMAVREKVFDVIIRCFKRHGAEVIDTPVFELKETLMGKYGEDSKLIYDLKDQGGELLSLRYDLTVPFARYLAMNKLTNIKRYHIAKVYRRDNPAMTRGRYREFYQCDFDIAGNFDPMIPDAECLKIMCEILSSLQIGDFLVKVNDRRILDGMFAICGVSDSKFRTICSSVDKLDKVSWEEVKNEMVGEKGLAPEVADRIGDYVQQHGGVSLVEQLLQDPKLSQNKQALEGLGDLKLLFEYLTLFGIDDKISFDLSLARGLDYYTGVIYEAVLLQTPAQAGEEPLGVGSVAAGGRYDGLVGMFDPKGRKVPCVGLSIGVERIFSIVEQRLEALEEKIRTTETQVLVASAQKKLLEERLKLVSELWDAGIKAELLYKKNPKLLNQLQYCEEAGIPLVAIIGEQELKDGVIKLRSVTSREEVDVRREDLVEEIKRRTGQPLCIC
Chain of Centromere B (P07199 whole entry): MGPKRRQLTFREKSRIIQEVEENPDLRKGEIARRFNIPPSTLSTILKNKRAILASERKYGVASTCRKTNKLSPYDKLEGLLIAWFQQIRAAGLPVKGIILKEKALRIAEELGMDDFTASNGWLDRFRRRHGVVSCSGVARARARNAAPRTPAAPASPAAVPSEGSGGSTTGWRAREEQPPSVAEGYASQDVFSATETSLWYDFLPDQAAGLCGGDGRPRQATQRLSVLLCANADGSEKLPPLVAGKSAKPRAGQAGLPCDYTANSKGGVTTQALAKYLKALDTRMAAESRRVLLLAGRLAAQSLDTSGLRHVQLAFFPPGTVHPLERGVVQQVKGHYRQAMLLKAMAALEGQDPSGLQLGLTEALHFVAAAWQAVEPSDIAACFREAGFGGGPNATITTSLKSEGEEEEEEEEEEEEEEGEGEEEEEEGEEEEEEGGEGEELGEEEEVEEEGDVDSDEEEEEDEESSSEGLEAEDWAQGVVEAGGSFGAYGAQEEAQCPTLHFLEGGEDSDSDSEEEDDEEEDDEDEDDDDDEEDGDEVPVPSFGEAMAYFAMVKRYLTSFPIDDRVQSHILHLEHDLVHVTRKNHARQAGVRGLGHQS
Chain of SSB (P05455 whole entry): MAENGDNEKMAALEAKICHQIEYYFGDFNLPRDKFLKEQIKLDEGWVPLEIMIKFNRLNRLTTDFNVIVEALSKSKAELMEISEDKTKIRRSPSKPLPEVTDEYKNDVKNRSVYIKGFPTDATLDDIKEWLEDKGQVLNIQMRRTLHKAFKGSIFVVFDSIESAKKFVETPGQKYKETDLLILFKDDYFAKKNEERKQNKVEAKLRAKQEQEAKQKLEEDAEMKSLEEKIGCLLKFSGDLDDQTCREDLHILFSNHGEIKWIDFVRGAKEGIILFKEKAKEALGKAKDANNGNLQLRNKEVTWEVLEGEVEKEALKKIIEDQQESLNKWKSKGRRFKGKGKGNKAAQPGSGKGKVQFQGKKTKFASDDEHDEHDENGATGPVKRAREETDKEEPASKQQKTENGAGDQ

B1: CH235 (antibody, V domains shown)
VH: QVQLVQSGAEVKKPGASVTVSCQASGYTFTNYYVHWVRQAPGQGLQLMGWIDPSWGRTNYAQNFQGRITMTRDTSTSTVYMEMRSLRSEDTAVYYCARNVATEGSLLHYDYWGQGTLVTVSA
VL: EIVLTQSPATLSVSPGERATLSCRASQSVRSNLAWYQQRPGQAPRLLIYGTSTRATGVPARFSGRGSGTEFTLAISSMQSEDFAVYLCLQYNNWWTFGQGTKVEIK
B1: the results for the AtheNA signal (relative luminescence units) with Centromere B [1], with Centromere B [2] and with Centromere B [3] were 3, 5 and 6, respectively.

B2: CH235 Fab (Fab, V domains shown)
VH: QVQLVQSGAEVKKPGASVTVSCQASGYTFTNYYVHWVRQAPGQGLQLMGWIDPSWGRTNYAQNFQGRITMTRDTSTSTVYMEMRSLRSEDTAVYYCARNVATEGSLLHYDYWGQGTLVTVSA
VL: EIVLTQSPATLSVSPGERATLSCRASQSVRSNLAWYQQRPGQAPRLLIYGTSTRATGVPARFSGRGSGTEFTLAISSMQSEDFAVYLCLQYNNWWTFGQGTKVEIK
As for B2, the stoichiometry (Fabs per trimer) (Fabs per trimer) in [4] was found to be 1; in [5] it was 2.

B3: CH235.12 Fab (Fab, V domains shown)
VH: QVRLAQYGGGVKRLGATMTLSCVASGYTFNDYYIHWVRQAPGQGFELLGYIDPANGRPDYAGALRERLSFYRDKSMETLYMDLRSLRYDDTAMYYCVRNVGTAGSLLHYDHWGSGSPVIVSS
VL: EIVLTQSPATLSASPGERVTLTCRASRSVRNNVAWYQHKGGQSPRLLIYDASTRAAGVPARFSGSASGTEFTLAISNLESEDFTVYFCLQYNNWWTFGQGTRVDIK
In the case of B3, the stoichiometry (Fabs per trimer) (Fabs per trimer) in test [4] and in [5] was 3 each time.

B4: CH236 (antibody, V domains shown)
VH: QVQLVQSGAAVKRPGASVTISCRASGYTFTTYYIHWVRQAPGQRLELMGMIDPSRGRTDYAQKFQGRVTMSRDTSTSTLYMELRSLRPDDTALYYCVRNVGTEGSLLHYDYWGQGTLVTVSS
VL: EIVLTQSPATLSVSPGERVTLSCRASQSVRNNLAWYRQKRGQAPRLLIYGASTRATGIPARFSGSGSGTEFTLTISSMQSEDFAVYYCQQYNNWWTFGQGTKVEIK
For B4, the AtheNA signal (relative luminescence units) with Centromere B [1] came out at 208; with Jo-1 [6], 7; in the test “AtheNA, Ab 50 ug/ml”, 207; in the test “AtheNA, Ab 6.25 ug/ml”, 15; in the test “AtheNA, Ab 12.5 ug/ml” it was 63; in “AtheNA, Ab 25 ug/ml”, 175. Besides, the AtheNA signal (relative luminescence units) with Centromere B [7] was 84; with Jo-1 [8], 145; with Centromere B [2], 233; with Jo-1 [9], 19; in the test with Centromere B [3], 129; in the test with Jo-1 [10], 72.

B5: CH491 (antibody, V domains shown)
VH: QVQLVQSGAAVKRPGASVTISCRASGYTFTTYYIHWVRQAPGQGLELMGWINPRGGRTDYSYRFEDRVSMYRDTSMSIVYMDLRNLKSADTAVYYCVRNVGTSGSLLHYDFWGQGSLVTVSS
VL: EIVLTQSPATLSVSPGERVTLSCRASQSVRNNLAWYRQKRGQAPRLLIYGASTRATGIPARFSGSGSGTEFTLTISSMQSEDFAVYYCQQYNNWWTFGQGTKVEIK
For B5, the AtheNA signal with Jo-1 [6] came out at 56; in the test “AtheNA, Ab 50 ug/ml”, 144; in the test “AtheNA, Ab 6.25 ug/ml” it was 42; in the test “AtheNA, Ab 12.5 ug/ml”, 60; in the test “AtheNA, Ab 25 ug/ml”, 95; in the test with Jo-1 [8], 169. In addition, the AtheNA signal with Jo-1 [9] was 79; in the test with Jo-1 [10], 118.

B6: CH493 (antibody, V domains shown)
VH: QVRLLQYGGGVKRPGASMTISCVASGYNFNDYYIHWVRQAPGQGLELMGWIDPSGGRTDYAGAFGDRVSMYRDKSMNTLYMDLRSLRSGDTAMYYCVRNVGTAGSLLHYDHWGLGVMVTVSS
VL: EIVLTQSPATLSVSPGERVTLSCRASQSVRNNLAWYRQKRGQAPRLLIYGASTRATGIPARFSGSGSGTEFTLTISSMQSEDFAVYYCQQYNNWWTFGQGTKVEIK
For the molecule B6, the AtheNA signal with Centromere B [1] was determined as 177; in the test with Jo-1 [6], 54; with Centromere B [7], 94; in the test with Jo-1 [8] it was 198; with Centromere B [2], 165; with Jo-1 [9] it was 102. Besides, the figures for the AtheNA signal in the test with Centromere B [3] and with Jo-1 [10] were 129 and 167, respectively.

B7: CH235.9 Fab (Fab, V domains shown)
VH: QVRLLQYGGGVKRPGASMTISCVASGYNFNDYYIHWVRQAPGQGLELMGWIDPSGGRTDYAGAFGDRVSMYRDKSMNTLYMDLRSLRSGDTAMYYCVRNVGTAGSLLHYDHWGLGVMVTVSS
VL: EIVLTQSPATLSVSPGERVTLSCRASQSVRNNLAWYRQKRGQAPRLLIYGASTRATGIPARFSGSGSGTEFTLTISSMQSEDFAVYYCQQYNNWWTFGQGTKVEIK
B7: the stoichiometry (Fabs per trimer) (Fabs per trimer) in test [4] and in [5] was 3 each time.

B8: CH492 (antibody, V domains shown)
VH: QVQLVQSGAAVKKPGASVRVSCKASGYTFTSSHIHWVRQAPGQGPEWMGMVDPRFGRPTYAQKFQGRVAMTRDIYTSTVYMDLRSLKSEDTAIYFCVRNAETEGSLLHIEYWGQGTRVTVSS
VL: EIVLTQSPATLSVSPGERATLSCRASQSVRSNIAWYQQKPGQAPRLLIHGASTRATGIPGRFSGSGSGPEFTLAISSVQSEDFAVYYCQQYNDWWTFGQGTKVEIK
With B8, the concentration giving a half-maximal response (EC50 (read off the curve)) in [11] is 6 µg/mL; in [12], 0.5 µg/mL; in [13], 0.5 µg/mL; with Con S gp120, 5 µg/mL.

B9: CH241 (antibody, V domains shown)
VH: QVQLVQSGAAVKKPGASVRVSCKASGYTFTSSHIHWVRQAPGQGPEWMGMIDPSVGRPTTAGKFQGRVTMTRDRYTSTAYMDLSSLRSEDTAVYYCARSVETTGSLLYFDYWGQGTLITVSS
VL: EIVLTQSPATLSVSPGERATLSCRASQSVRSNIAWYQQKPGQAPRLLIHGASTRATGIPGRFSGSGSGPEFTLAISSVQSEDFAVYYCQQYNDWWTFGQGTKVEIK
Consider B9, for which the AtheNA signal (relative luminescence units) turned out to be 6 with Centromere B [1], 8 with Centromere B [2] and 14 with Centromere B [3].
